Measurements published in paper PMC3155514, “Subunit Interface Residues F129 and H294 of Human RAD51 Are Essential for Recombinase Function”.

Assays:
HsRAD51(F129V) [1] = target: T1, HsRAD51(F129V) (Homo sapiens, UniProt Q06609 1-339, F129V); assay: SPR; ADP (2.5 mM); SPR (Biacore 3000): 20 mM HEPES pH 7.5, 10% glycerol, 1 mM DTT, 1 mM MgCl2, 0.005% P-20, 2.5 mM indicated nucleotide, 150 mM KCl when indicated (text: salt similar to strand exchange), 25 C, 100 nM-1.6 uM protein; conditions: protein: recombinant; chain copies: 16; label: 5' biotin on strand 1; blunt
HsRAD51 wild type [2] = target: T2, HsRAD51 wild type (Homo sapiens, UniProt Q06609 1-339); assay: SPR; ATP (2.5 mM); SPR (Biacore 3000): 20 mM HEPES pH 7.5, 10% glycerol, 1 mM DTT, 1 mM MgCl2, 0.005% P-20, 2.5 mM indicated nucleotide, 150 mM KCl when indicated (text: salt similar to strand exchange), 25 C, 100 nM-1.6 uM protein; conditions: protein: recombinant
HsRAD51 wild type [3] = target: T2, HsRAD51 wild type; assay: SPR; no nucleotide; SPR (Biacore 3000): 20 mM HEPES pH 7.5, 10% glycerol, 1 mM DTT, 1 mM MgCl2, 0.005% P-20, 2.5 mM indicated nucleotide, 150 mM KCl when indicated (text: salt similar to strand exchange), 25 C, 100 nM-1.6 uM protein; conditions: protein: recombinant
HsRAD51 wild type [4] = target: T2, HsRAD51 wild type; assay: SPR; ADP (2.5 mM); SPR (Biacore 3000): 20 mM HEPES pH 7.5, 10% glycerol, 1 mM DTT, 1 mM MgCl2, 0.005% P-20, 2.5 mM indicated nucleotide, 150 mM KCl when indicated (text: salt similar to strand exchange), 25 C, 100 nM-1.6 uM protein; conditions: protein: recombinant; chain copies: 10; label: 5' biotin; single strand
HsRAD51(H294V) [5] = target: T3, HsRAD51(H294V) (Homo sapiens, UniProt Q06609 1-339, H294V); assay: SPR; no nucleotide; SPR (Biacore 3000): 20 mM HEPES pH 7.5, 10% glycerol, 1 mM DTT, 1 mM MgCl2, 0.005% P-20, 2.5 mM indicated nucleotide, 150 mM KCl when indicated (text: salt similar to strand exchange), 25 C, 100 nM-1.6 uM protein; conditions: protein: recombinant; chain copies: 10; label: 5' biotin; single strand
HsRAD51(F129V) [6] = target: T1, HsRAD51(F129V); assay: SPR; ADP (2.5 mM); rapid dissociation; SPR (Biacore 3000): 20 mM HEPES pH 7.5, 10% glycerol, 1 mM DTT, 1 mM MgCl2, 0.005% P-20, 2.5 mM indicated nucleotide, 150 mM KCl when indicated (text: salt similar to strand exchange), 25 C, 100 nM-1.6 uM protein; conditions: protein: recombinant; chain copies: 10; label: 5' biotin; single strand
HsRAD51(H294V) [7] = target: T3, HsRAD51(H294V); assay: as above; conditions: protein: recombinant; chain copies: 10; label: 5' biotin; single strand
[8] = chain copies: 16, label: 5' biotin on strand 1, blunt
[9] = chain copies: 10, label: 5' biotin, single strand

T2 sequence (Q06609 whole entry): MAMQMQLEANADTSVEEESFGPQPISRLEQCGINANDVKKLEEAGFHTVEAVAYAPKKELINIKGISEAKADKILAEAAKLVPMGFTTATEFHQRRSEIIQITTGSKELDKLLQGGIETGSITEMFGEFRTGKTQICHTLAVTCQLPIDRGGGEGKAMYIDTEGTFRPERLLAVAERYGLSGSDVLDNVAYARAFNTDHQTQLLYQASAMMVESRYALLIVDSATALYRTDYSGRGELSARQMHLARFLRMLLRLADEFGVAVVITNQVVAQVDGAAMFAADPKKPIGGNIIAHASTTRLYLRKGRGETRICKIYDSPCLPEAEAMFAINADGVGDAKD
T1 sequence (Q06609 whole entry F129V): as the sequence (Q06609 whole entry) above, with F129V counted along it
T3 sequence (Q06609 whole entry H294V): as the sequence (Q06609 whole entry) above, with H294V counted along it

B1: 50 bp dsDNA (dsDNA)
DNA 1: TCGAGAGGGTAAACCACAATTATTGATATAAAATAGTTTTGGGTAGGCGA
DNA 2: TCGCCTACCCAAAACTATTTTATATCAATAATTGTGGTTTACCCTCTCGA
Work on B1 yielded a Kd (HsRAD51(F129V) [1]) of 446 nM, a Kd (HsRAD51 wild type [2]; [8]) of 262 nM and a Kd (HsRAD51 wild type [3]; [8]) of 264 nM.

TTTTTTTTTTTTTTTTTTTTTTTTTTTTTTTTTTTTTTTTTTTTTTTTTT (ssDNA) [dT50] was tested, and the Kd (HsRAD51 wild type [4]) was 20 nM, the Kd (HsRAD51 wild type [2]; [9]) was 90 nM and the Kd (HsRAD51 wild type [3]; [9]) was 15 nM. For the same binder, the Kd (HsRAD51(H294V) [5]) was 28 nM, the Kd (HsRAD51(F129V) [6]) was 54 nM and the Kd (HsRAD51(H294V) [7]) was 43 nM.
